The values that follow come from patent US20030069395A1 (DYAX, published 2003).

Bridges are numbered along the chain shown (N, C = ends). Where no end group is shown, it is not given here. [ ]: non-standard residue; d: D form. fluorescein = fluorescein label; Ahx = NCCCCCC(=O)O Where only a bound is given, the exact number is not on record here.

One assay deals with rabbit serum albumin (Rabbit, UniProt P49065 25-608). The experiment in a line: fluorescence anisotropy; 3 mM phosphate, pH 6.2, 0 M NaCl.
Assay [1] has as its target T1, pig serum albumin (Pig, UniProt P08835 25-607). Described as above.
The target of assay [2] is T2, chicken ovalbumin (Chicken, UniProt P01012 2-386).
T2 construct: Negative control; also called Chicken (egg)
T2 sequence (looked up): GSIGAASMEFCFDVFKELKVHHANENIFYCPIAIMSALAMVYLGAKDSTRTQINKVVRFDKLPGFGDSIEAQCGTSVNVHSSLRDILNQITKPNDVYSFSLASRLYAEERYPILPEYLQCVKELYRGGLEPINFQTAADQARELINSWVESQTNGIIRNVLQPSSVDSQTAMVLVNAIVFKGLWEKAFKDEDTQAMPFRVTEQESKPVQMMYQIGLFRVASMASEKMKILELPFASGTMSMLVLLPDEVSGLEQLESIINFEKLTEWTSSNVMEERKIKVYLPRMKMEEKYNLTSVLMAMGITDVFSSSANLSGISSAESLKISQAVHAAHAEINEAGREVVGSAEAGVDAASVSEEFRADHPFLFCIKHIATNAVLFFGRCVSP
The experiment in a line: fluorescence anisotropy; PBS, pH 7.4, 0.14 M NaCl; negative control.

In assay [3] the target is T2, chicken ovalbumin. As to the kind of experiment: fluorescence anisotropy; 3 mM phosphate, pH 6.2, 0 M NaCl; negative control.
Assay [4] addresses T3, human serum albumin (HSA) (human, UniProt P02768 25-609).
T3 construct: also called caprylate-biotinylated-HSA
As to the kind of experiment: fluoresceinated peptide; PBS. As to the method:
(§1) Affinity determinations were made by first labeling polypeptides on the C-terminal end with NHS-fluorescein. Fluorescence anisotropy measurements were performed in 384-well microplates in a volume of 10 μl in binding buffer using a Tecan Polarion fluorescence polarization plate reader. The concentration of fluorescein labeled peptide was held constant (20 nM), and the concentration of HSA was varied. For pH 6.2, 7.1, and 7.4 binding conditions, a 3 mM phosphate, 0.01% Tween-20 buffer was used. For pH 9.1 binding conditions, a 3 mM sodium bicarbonate buffer, 0.01% Tween-20 nonionic detergent buffer was used. Once NaCl was added to any of these buffers, their pH was adjusted again to achieve the original pH. The binding mixtures were equilibrated for 10 minutes in the microplate at 30° C. prior to performing the measurement. The observed change in anisotropy was fit to the equation below via nonlinear regression to obtain the apparent KD. This equation assumes that the peptide and HSA form a reversible complex with 1:1 stoichiometry.
Each of the polypeptides was fluoresceinated and tested for binding against an immobilized HSA target as described above.

In assay [5] the target is T3, human serum albumin (HSA). As to the kind of experiment: fluorescence anisotropy; pH 6.2, 0.14 M NaCl, no caprylate. The protocol:
as §1

Assay [6] deals with T3, human serum albumin (HSA). The experiment in a line: fluorescence anisotropy; pH 9.1, 0.14 M NaCl (as the head marks it), no caprylate. As to the method: as §1
Assay [7] addresses T3, human serum albumin (HSA). As to the kind of experiment: fluorescence anisotropy; 3 mM phosphate, pH 6.2, 0 M NaCl.
Assay [8] has as its target T4, bovine serum albumin (BSA) (Bovine, UniProt P02769 25-607). The assay is described as above.
Assay [9] deals with T5, goat serum albumin (GSA) (Goat).
T5 sequence (P85295 whole entry, looked up): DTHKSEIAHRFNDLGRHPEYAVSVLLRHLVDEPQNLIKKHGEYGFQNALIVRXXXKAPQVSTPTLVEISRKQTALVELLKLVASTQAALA
The description is as above.

Assay [10] addresses T6, murine serum albumin (MSA) (Mouse, UniProt P07724 25-608).
T6 construct: also called mouse serum albumin; Mouse
The assay is described as above.

In assay [11] the target is T7, rhesus serum albumin (Rhesus, UniProt Q28522 17-600). The description is as above.
In assay [12] the target is T3, human serum albumin (HSA). As to the kind of experiment: fluorescence anisotropy; pH 6.2, 10 mM NaCl. As to the method: as §1
Assay [13] concerns the target T3, human serum albumin (HSA). As to the kind of experiment: fluorescence anisotropy; pH 7.4, 0.14 M NaCl, 0.1% caprylate. The protocol:
as §1
Once all the positive phage isolates were sequenced, peptides corresponding to the display peptide were synthesized. A small amount of constant phage sequence surrounding each varied amino acid sequence region was retained and either a -GGGK-NH₂ (SEQ ID NO: 24) amino acid sequence or -X-K-NH₂ C-terminal tail was added to each peptide, where X is 6-aminohexanoic acid and K-NH₂ is an amidated terminal lysine residue. The constant phage sequence was retained because these residues can often play a role in target binding. To determine its affinity for HSA , each peptide was labeled with fluorescein on the C-terminal lysine side chain.

Assay [14] addresses T3, human serum albumin (HSA). As to the kind of experiment: fluorescence anisotropy; pH 6.2, no NaCl, no caprylate. The protocol:
as §1

Assay [15] has as its target T1, pig serum albumin. The experiment in a line: fluorescence anisotropy; PBS, pH 7.4, 0.14 M NaCl.
Assay [16] addresses T3, human serum albumin (HSA). The experiment in a line: fluorescence anisotropy; PBS, pH 7.4, 0.14 M NaCl.
Assay [17] has as its target T4, bovine serum albumin (BSA). As to the kind of experiment: fluorescence anisotropy; PBS, pH 7.4, 0.14 M NaCl.
For assay [18], the target named is T5, goat serum albumin (GSA). As to the kind of experiment: fluorescence anisotropy; PBS, pH 7.4, 0.14 M NaCl.
The next assay concerns the target rat serum albumin (Rat, UniProt P02770 25-608). As to the kind of experiment: fluorescence anisotropy; PBS, pH 7.4, 0.14 M NaCl.
The target in assay [19] is T6, murine serum albumin (MSA). The experiment in a line: fluorescence anisotropy; PBS, pH 7.4, 0.14 M NaCl.
Assay [20] concerns the target T7, rhesus serum albumin. As to the kind of experiment: fluorescence anisotropy; PBS, pH 7.4, 0.14 M NaCl.
Assay [21] has as its target T3, human serum albumin (HSA). As to the kind of experiment: fluorescence anisotropy; pH 7.4, 0.14 M NaCl, no caprylate. The protocol: as §1
Assay [22] deals with T3, human serum albumin (HSA). The experiment in a line: fluorescence anisotropy; buffer not named in Table 2.
Assay [23] deals with T3, human serum albumin (HSA). The experiment in a line: fluorescence anisotropy, truncated peptides. The protocol:
as §1

Assay [24] concerns the target T3, human serum albumin (HSA). As to the kind of experiment: phage ELISA on caprylate-biotinylated HSA held on streptavidin wells; TN12/1 solution-capture selection.

T1 sequence (P08835 25-607 limits assumed): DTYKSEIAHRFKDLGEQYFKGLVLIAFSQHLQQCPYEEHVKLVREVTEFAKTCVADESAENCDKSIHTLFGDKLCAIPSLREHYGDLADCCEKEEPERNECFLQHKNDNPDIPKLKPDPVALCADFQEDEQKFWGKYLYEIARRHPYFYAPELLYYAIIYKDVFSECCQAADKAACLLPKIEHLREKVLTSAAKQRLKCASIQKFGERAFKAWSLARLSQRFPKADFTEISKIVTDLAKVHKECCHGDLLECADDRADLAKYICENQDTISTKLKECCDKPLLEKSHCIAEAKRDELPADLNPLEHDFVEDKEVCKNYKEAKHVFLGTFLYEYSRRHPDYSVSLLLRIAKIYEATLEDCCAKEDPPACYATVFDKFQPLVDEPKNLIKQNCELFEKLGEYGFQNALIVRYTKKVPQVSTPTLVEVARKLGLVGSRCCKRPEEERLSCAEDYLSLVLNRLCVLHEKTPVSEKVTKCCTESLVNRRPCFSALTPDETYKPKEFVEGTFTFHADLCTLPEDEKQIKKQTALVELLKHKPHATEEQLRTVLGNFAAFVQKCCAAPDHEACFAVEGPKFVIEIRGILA
T4 sequence (P02769 25-607 limits assumed): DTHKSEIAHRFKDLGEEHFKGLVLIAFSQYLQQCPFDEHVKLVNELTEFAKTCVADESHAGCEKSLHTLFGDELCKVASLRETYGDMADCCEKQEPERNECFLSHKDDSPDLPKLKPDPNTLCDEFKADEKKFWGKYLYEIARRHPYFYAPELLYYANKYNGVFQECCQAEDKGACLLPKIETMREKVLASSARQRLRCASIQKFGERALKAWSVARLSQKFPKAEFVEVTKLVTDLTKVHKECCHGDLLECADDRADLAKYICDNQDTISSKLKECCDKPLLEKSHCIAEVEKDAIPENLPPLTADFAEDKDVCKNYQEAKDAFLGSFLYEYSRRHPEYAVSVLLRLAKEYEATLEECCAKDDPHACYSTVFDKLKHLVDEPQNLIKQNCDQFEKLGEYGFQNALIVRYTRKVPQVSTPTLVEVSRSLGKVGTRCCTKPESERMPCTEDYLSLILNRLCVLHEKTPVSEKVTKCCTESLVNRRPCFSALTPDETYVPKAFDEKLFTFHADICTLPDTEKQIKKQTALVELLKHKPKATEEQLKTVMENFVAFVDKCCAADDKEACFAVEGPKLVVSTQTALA
T7 sequence (Q28522 17-600 limits assumed): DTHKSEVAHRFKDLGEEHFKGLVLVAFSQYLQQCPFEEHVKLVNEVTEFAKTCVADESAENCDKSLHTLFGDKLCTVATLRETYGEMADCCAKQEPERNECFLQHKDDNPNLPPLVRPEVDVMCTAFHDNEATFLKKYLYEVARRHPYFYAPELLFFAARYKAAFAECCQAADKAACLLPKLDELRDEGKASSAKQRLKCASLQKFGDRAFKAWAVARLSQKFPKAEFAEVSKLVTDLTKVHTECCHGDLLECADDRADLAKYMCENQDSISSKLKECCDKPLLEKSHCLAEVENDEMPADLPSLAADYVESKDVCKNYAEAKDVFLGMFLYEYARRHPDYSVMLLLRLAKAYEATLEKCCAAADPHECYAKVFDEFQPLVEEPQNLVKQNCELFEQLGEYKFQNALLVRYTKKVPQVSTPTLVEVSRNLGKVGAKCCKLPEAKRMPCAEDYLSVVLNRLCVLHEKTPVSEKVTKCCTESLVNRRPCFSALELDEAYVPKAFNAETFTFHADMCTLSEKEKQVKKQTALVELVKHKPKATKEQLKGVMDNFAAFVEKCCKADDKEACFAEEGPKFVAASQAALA
T6 sequence (P07724 25-608 limits assumed): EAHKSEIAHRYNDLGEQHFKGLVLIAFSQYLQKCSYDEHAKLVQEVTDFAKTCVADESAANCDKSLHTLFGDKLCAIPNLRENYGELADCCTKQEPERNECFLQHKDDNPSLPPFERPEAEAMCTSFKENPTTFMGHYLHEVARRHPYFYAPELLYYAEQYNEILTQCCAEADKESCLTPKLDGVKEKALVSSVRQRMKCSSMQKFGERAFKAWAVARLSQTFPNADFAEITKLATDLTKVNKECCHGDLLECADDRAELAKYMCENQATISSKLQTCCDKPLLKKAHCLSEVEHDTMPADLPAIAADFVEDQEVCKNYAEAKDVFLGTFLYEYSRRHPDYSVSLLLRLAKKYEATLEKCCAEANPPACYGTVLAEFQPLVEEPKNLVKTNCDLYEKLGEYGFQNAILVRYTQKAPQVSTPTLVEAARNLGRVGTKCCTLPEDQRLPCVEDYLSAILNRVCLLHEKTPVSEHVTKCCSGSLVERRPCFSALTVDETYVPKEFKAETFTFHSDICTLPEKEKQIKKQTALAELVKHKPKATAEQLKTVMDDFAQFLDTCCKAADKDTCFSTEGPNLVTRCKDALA
Sequence of rabbit serum albumin (P49065 25-608 limits assumed): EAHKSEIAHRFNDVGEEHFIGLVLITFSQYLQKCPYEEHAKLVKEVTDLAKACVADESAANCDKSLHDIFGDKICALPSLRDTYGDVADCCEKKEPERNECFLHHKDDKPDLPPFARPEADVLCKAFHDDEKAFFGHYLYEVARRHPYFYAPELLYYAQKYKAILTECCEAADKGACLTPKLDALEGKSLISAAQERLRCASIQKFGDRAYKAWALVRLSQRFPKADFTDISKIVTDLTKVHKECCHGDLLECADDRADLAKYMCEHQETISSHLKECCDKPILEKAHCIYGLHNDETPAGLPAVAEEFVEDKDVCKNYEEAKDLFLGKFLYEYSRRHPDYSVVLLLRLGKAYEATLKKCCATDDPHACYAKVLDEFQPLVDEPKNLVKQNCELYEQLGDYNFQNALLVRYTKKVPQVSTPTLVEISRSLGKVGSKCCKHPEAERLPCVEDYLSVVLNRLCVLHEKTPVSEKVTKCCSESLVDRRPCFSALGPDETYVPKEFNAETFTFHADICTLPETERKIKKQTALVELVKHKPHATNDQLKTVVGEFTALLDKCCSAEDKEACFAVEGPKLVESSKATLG
Sequence of rat serum albumin (P02770 25-608 limits assumed): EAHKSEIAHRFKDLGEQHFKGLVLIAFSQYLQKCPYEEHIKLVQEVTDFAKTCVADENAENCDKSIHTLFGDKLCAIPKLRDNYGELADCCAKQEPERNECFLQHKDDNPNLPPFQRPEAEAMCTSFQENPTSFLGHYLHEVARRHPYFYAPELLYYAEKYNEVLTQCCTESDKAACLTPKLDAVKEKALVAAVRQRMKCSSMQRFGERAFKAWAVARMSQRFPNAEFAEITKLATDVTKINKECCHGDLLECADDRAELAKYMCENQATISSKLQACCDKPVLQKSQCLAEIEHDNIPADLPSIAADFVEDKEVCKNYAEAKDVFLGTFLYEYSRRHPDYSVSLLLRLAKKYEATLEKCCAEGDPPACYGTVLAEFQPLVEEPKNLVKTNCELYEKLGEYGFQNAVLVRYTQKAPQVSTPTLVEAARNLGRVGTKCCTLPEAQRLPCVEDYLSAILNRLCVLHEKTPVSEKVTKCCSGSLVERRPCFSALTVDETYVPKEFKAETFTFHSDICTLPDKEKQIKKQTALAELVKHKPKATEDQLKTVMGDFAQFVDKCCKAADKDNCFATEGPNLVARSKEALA

Take Ac-AEGTGDFWFCDRIAWYPQHLCEFLDPEGGGK-NH2 (not fully specified; cysteine pairing not given here) [DX-236, Ac-AEGTGDFWFCDRIAWYPQHLCEFLDPEGGGK-NH2]: the Kd in the assay with rabbit serum albumin is 0.5 µM; with pig serum albumin [1], 0.5 µM; in the assay with chicken ovalbumin [2], > 200 µM; with chicken ovalbumin [3], > 200 µM.
The molecule Ac-AEGTGDFWFCARIAWYPQHLCEFLDPEGGGK-NH2 (cysteine pairing not given here; also: fluoresceinated, site not given here) [alanine mutant of DX-236, Ac-AEGTGDFWFCARIAWYPQHLCEFLDPEGGGK-NH2] showed a Kd in [4] of 5 µM.
Turning to Ac-AEGTGSNHGCWHFSCIWDAPE[Ahx]K(fluorescein)-NH2 (disulfide 10-15) [DX-298, Ac-AEGTGSNHGCWHFSCIWDAPE-X-K-NH2], the dissociation constant Kd in [5] and in assay [6] was > 200 µM throughout.

B1: DX-321, Ac-AEGTGDRNMCKFSWIRSPAFCARADPE-X-K-NH2 (peptide)
peptide: AEGTGDRNMCKFSWIRSPAFCARADPEXK
modifications: N-terminal acetyl; X = 6-aminohexanoic acid before the C-terminal Lys; C-terminal amide; C-terminal Lys side chain carries fluorescein (anisotropy) or is coupled to NHS-Sepharose
With B1, the Kd in the assay with pig serum albumin [1] was 21 µM; in [7], 0.9 µM; in [8] it was 21 µM; with goat serum albumin (GSA) [9], 95 µM; in assay [10], > 200 µM; in the assay with rhesus serum albumin [11], 38 µM. Further, the Kd in assay [12] was ~9 µM; in [13], 75 µM; in assay [14] it was 0.9 µM; in [5], 9 µM; with chicken ovalbumin [2] it was > 200 µM; in the assay with chicken ovalbumin [3], > 200 µM. The Kd is > 200 µM with pig serum albumin [15]; 84 µM in [16]; > 200 µM in assay [17]; 83 µM with goat serum albumin (GSA) [18]; 117 µM with rat serum albumin; > 200 µM in assay [19]. The values for the Kd (in the assay with rhesus serum albumin [20]; in assay [21]) were 82 µM and 84 µM, respectively.

B2: truncated peptide of DX-236, Ac-AEGTGDFWFCDRIAWYPQHLCGGGK-NH2 (peptide)
peptide: Ac-AEGTGDFWFCDRIAWYPQHLCGGGK(fluorescein)-NH2
modifications: not fully specified (bridges); printed as Ac-AEGTGDFWFCDRIAWYPQHLCGGGK-NH2; cysteine pairing not given here
In turn, B2 gave a Kd in assay [22] of 8.9 µM. Moreover, the “fold increase in KD against DX-236 (SEQ ID NO: 19)” value in assay [23] was ~4 fold.

B3: truncated peptide of DX-236, Ac-FWFCDRIAWYPQHLCEFLDPEGGGK-NH2 (peptide)
peptide: Ac-FWFCDRIAWYPQHLCEFLDPEGGGK(fluorescein)-NH2
modifications: not fully specified (bridges); printed as Ac-FWFCDRIAWYPQHLCEFLDPEGGGK-NH2; cysteine pairing not given here
For B3, binding in assay [22] was put at a Kd of 8.9 µM. In assay [23], the “fold increase in KD against DX-236 (SEQ ID NO: 19)” value was ~4 fold.
For Ac-AEGTGDDWDCVTRWANRDQQCWGPDPE[Ahx]K(fluorescein)-NH2 (disulfide 10-21) [DX-313, Ac-AEGTGDDWDCVTRWANRDQQCWGPDPE-X-K-NH2], the Kd in [5] was 80 µM; in assay [6] it was 90 µM; in assay [21], > 200 µM.

B4: phage isolate displaying DWDCVTRWANRDQQCWGP (SEQ ID NO: 247) (peptide)
chain: DWDCVTRWANRDQQCWGP
modifications: not fully specified (bridges); cysteine pairing not given here
notes: Whole phage in the ELISA; not shown: protein III of M13 phage; the display peptide stands at its amino terminus
Turning to B4, in assay [24], the binding result is reported as “binds”.
